Results: US20240228596A1

Molecular target: SARS-COV-2 Wuhan WT Spike_del18 on VSV-delG pseudotyped particles (SARS-COV-2) (UniProt P0DTC2)
Assay: cell-based or functional assay

In the case of “VHH72-5mut-Fc (VHH72_h1_E1D_R27L_E31D_Y32I_S56G_L97A-10xGS-hIgG1_EPKSCdel_LALA_K447del) (Fc fusion)”, the potency of neutralization against D72-53 is reported as 2.5 times.
